Here are results for four molecules from publication doi:10.1101/2025.06.10.658938 (bioRxiv, 2025).

Common to all, as to experiment: split reporter
Experiment [1] has as its target T1, calcitonin-like receptor (CLR), smBit-tagged Target construct (UniProt Q16602 23-461).
The target in experiment [2] is T1, calcitonin-like receptor (CLR), …. This is another data set of the same source.
The target in experiment [3] is sphingosine 1-phosphate receptor 1 (S1PR1), smBit-tagged Target construct (UniProt P21453 1-347).
sphingosine 1-phosphate receptor 1 (S1PR1), smBit-tagged Target construct, sequence (P21453 1-347): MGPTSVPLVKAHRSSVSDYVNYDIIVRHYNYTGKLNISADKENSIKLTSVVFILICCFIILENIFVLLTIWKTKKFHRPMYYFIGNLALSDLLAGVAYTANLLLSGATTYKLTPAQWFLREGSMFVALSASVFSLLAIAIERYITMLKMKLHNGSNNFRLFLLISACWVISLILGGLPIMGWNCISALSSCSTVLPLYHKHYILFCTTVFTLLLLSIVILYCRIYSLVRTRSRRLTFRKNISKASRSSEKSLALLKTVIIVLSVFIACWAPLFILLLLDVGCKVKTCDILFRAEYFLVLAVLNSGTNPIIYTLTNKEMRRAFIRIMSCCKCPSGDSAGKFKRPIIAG

T1 sequence (Q16602 23-461): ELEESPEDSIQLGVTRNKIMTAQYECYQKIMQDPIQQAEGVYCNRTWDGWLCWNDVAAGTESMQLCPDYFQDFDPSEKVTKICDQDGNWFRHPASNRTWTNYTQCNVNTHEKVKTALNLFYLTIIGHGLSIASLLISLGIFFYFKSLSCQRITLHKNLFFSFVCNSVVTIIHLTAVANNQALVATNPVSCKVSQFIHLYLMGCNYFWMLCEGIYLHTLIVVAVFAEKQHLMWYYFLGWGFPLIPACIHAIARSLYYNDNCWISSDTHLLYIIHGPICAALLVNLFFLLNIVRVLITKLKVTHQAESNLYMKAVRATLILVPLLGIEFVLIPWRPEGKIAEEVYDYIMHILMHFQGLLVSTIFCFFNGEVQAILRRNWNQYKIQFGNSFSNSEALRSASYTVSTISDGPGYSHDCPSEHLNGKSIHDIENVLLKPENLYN

B1: receptor activity-modifying protein 1 (RAMP1), LgBit-tagged Binder construct (natural protein)
chain: CQEANYGALLRELCLTQFQVDMEAVGETLWCDWGRTIRSYRELADCTWHMAEKLGCFWPNAEVDRFFLAVHGRYFRSCPISGRAVRDPPGSILYPFIVVPITVTLLVTALVVWQSKRTEGIV
Consider B1, for which, in experiment [1], the “fold change of NanoBit luminescence over CLR+CD8a (1 ng Binder DNA)” value came out at 13 ± 1.45 fold and the “fold change of NanoBit luminescence over CLR+CD8a (20 ng Binder DNA)” value worked out at 2.16 ± 0.04 fold. In experiment [2], the “fold change of expression-normalised NanoBit over CLR+CD8a (1 ng Binder DNA)” value worked out at 2.7 ± 0.2 fold, the “fold change of expression-normalised NanoBit over CLR+CD8a (5 ng Binder DNA)” value is 2.9 ± 0.1 fold, the “fold change of expression-normalised NanoBit over CLR+CD8a (10 ng Binder DNA)” value is 2.7 ± 0.1 fold and the “fold change of expression-normalised NanoBit over CLR+CD8a (20 ng Binder DNA)” value worked out at 2.1 ± 0.1 fold.
Turning to LYPFIVVPITVTLLVTALVVWQSKRTEGIV (domain or fragment, UniProt O60894 119-148, looked up) [HALO-RAMP1-TM, LgBit-tagged Binder chimera], the “fold reduction of expression-normalised NanoBit relative to WT CLR-RAMP1” value in experiment [2] is 2 fold.
For the molecule LYPFIVVPITVTLLVTALVVWQSKRTEGIV (domain or fragment, UniProt O60894 119-148, looked up) [InnTag5-RAMP1-TM, LgBit-tagged Binder chimera], the “fold reduction of expression-normalised NanoBit relative to WT CLR-RAMP1” value in experiment [2] worked out at 2 fold.

B2: CD69 V48F, V49F double mutant, LgBit-tagged Binder construct (natural protein)
chain: SENCFVAENSSLHPESGQENDATSPHFSTRHEGSFQVPVLCAVMNFFFITILIIALIALSVGQYNCPGQYTFSMPSDSHVSSCSEDWVGYQRKCYFISTVKRSWTSAQNACSEHGATLAVIDSEKDMNFLKRYAGREEHWVGLKKEPGHPWKWSNGKEFNNWFNVTGSDKCVFLKNTEVSSMECEKNLYWICNKPYK
For the molecule B2, the “percent decrease of expression-normalised NanoBit relative to WT CD69” value in experiment [3] turned out to be 30%.
